The target of the test is 猫杯状病毒 (Feline Calicivirus, FCV), BJH13株 (Feline calicivirus strain BJH13). Nature of the test: cell-based or functional assay.

B1: 2G3单克隆抗体 (monoclonal antibody against feline calicivirus, from hybridoma 2G3, CGMCC NO.45148) (antibody, V domains shown)
VH: QVQLQQSGPELVKPGTSVKLSCQASGYTFTNYYMWWVKQRPGQGLEWIGQINPNNDNTDFNEKFRNKATLTVDKSSSTAYMQLSRLTSEDSAVYYCTRRAYWGQGTLVTVSA
VL: GVLLTQAPLSLPVSLGDQASISCRSSQYVVYINGNSYLEWYLQKPGQSPKLLIYKVSNRFSGVPDRFSGSGSGTDFTLKISRVEAEDLGIYYCFQGSHVPYTFGGGTKLEIR
With B1, the 中和抗体效价 (neutralising antibody titre of the injection) is 1280 titre (1:x), the 中和效价 (neutralisation titre of hybridoma supernatant) is 220 to 320 titre (1:x) and the 小鼠腹水中和效价 (neutralisation titre of ascites) is 25100 titre (1:x).

The record behind these values is patent CN115141273A.
